B1: full length TNF-gamma-beta on the cell surface (HEK293F stable transfectants; transfected cells) (ligand)
chain: MAEDLGLSFGETASVEMLPEHGSCRPKARSSSARWALTCCLVLLPFLAGLTTYLLVSQLRAQGEACVQFQALKGQEFAPSHQQVYAPLRADGDKPRAHLTVVRQTPTQHFKNQFPALHWEHELGLAFTKNRMNYTNKFLLIPESGDYFIYSQVTFRGMTSECSEIRQAGRPNKPDSITVVITKVTDSYPEPTQLLMGTKSVCEVGSNWFQPIYLGAMFSLQEGDKLMVNVSDISLVDYTKEDKTFFGAFLL
notes: also called TNF-gamma-beta expressing cells

The target in one assay is T1, non-tagged form of TR6 (UniProt O95407 30-300).
T1 construct: also called DcR3
T1 sequence (looked up): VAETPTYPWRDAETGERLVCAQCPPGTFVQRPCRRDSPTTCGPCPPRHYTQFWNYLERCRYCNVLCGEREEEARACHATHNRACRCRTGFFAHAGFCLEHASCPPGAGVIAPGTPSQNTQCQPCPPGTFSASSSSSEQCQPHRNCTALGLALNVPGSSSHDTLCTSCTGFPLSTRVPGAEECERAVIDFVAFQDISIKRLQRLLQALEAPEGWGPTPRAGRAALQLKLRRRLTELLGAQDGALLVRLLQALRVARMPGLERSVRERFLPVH
Kind of assay: competition flow cytometry on HEK293F cells expressing TNF-gamma-beta; competitor of DR3-Fc. How it is done: (§1) TR6 has been previously described as a decoy receptor (Pitti et al., Nature 396:699-703 (1998); Yu et al., J. Biol. Chem. 274:13733-6 (1999)) capable of competing with Fas and HveA for binding of FasL and LIGHT, respectively.
(§2) One million cells, in 0.1 ml of FACS buffer (PBS, 0.1% BSA, 0.1% NaN₃), were incubated with 0.1-1 microgram of protein or antibody at RT for 15 min. The cells were washed with 3 ml of FACS buffer, reacted with biotinylated primary antibody, and stained with PE-conjugated secondary antibody at RT for 15 min. Cells were then washed again, resuspended in 0.5 microgram/ml of propidium iodide, and live cells were gated and analyzed on a FACScan using the CellQuest software (BD Biosciences).

The target in assay [1] is T2, Fc-fusion form of the extracellular domain of DR6 (UniProt O75509 42-349, limits assumed).
T2 construct: extracellular domain; not shown: Fc part of the fusion
T2 sequence (looked up): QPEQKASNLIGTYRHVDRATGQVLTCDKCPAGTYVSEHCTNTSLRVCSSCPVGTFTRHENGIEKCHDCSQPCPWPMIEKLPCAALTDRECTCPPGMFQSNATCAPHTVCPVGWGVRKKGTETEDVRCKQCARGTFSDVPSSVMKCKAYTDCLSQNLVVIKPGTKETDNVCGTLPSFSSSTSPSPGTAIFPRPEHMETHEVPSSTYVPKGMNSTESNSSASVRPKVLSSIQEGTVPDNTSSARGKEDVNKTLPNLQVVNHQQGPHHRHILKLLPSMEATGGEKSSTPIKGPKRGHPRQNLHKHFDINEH
Kind of assay: flow cytometry on HEK293F cells expressing full length TNF-gamma-beta. How it is done:
as §1, §2
(In general: Flow cytometry measures light scatter and fluorescence of single cells or particles in a stream.)

For assay [2], the target named is T3, Fc-fusion form of the extracellular domain of OPG (UniProt O00300 22-401, limits assumed).
T3 construct: extracellular domain; not shown: Fc part of the fusion
T3 sequence (looked up): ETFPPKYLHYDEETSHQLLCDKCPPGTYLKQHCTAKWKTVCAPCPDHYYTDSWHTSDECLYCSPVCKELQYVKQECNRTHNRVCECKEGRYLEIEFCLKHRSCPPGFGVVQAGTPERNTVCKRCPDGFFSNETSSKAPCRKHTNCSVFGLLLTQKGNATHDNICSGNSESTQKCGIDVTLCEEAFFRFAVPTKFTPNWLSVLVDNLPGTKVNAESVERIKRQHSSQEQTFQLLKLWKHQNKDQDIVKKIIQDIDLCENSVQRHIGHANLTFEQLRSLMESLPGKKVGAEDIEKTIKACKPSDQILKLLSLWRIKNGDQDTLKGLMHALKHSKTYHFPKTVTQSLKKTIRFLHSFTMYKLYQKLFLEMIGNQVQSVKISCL
The assay is described as above. How it is done: as §1, §2

For assay [3], the system named is MC-38 murine colon cancer. Kind of assay: In vivo tumorigenicity assay, syngeneic MC-38 colon cancer. Details: species or system C57BL6/6 mice. The settings on record: local production by transfected MCA 38 cells, 1×10^6 cells/mouse. How it is done: [The full-length TNF-gamma and extracellular domain of DR3 was cloned into pcDNA3 expression vector and transfected to MCA 38 cells, respectively. After selection and cloning, three clones from each constructs were picked for tumorigenicity study. MCA 38 cells (1×10^6 cells/mouse) expressing TNF-gamma or DR3 extracellular domain were injected into C57BL6/6 mice. The tumor size was assessed by measuring perpendicular diameters with a caliper and calculated by multiplying the measurements of diameters in two dimensions. Data are represented as the mean +/−SD of 6 mice in each group.] It is clear that most immune cells and cancer cells can express more than one TNF receptor (even more than one death receptor) and ligand superfamily member. […] Moreover, the expression of these ligands and receptors may differ at the level of individual cell types within tissues and the expression level on the same cell type may also differ.
The full length TNF-gamma and extracellular domain of DR3 was cloned into pcDNA3 expression vector (Invitrogen, Carlsbad, Calif.) and transfected to MCA 38 cells, respectively. […] Mice then were randomized and tumors were measured twice weekly. The tumor size was assessed by measuring perpendicular diameters with a caliper and calculated by multiplying the measurements of diameters in two dimensions. […]

Assay [4] deals with B1. Kind of assay: flow cytometry on HEK293F cells expressing full length TNF-gamma-beta. On the procedure: as §1, §2
Assay [5] has as its target T4, FLAG-tagged soluble TNF-gamma-beta (aa 72-251) (human, UniProt O95150 72-251).
T4 construct: also called FLAG-TL1β; FLAG-TNF-gamma-beta; not shown: The N-terminal FLAG tag (pFLAG-CMV-1 vector) and any vector linker
T4 sequence: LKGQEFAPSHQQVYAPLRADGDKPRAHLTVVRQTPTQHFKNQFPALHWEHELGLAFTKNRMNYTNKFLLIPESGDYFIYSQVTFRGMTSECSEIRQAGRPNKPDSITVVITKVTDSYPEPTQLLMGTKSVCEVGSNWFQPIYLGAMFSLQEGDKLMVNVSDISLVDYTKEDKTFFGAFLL
The experiment in a line: co-immunoprecipitation with protein A-Sepharose, anti-Flag M2 blot. From the text:
The beads were then precipitated and washed extensively with PBST buffer (PBS, 0.5% Triton X-100) before boiled in SDS-sample buffer. Proteins were resolved on 4-20% Tris-Glycine gels (NOVEX), transferred to nitrocellulose membranes, and blotted with anti-Flag M2 monoclonal antibody (1 microgram/ml, Sigma) andhorseradish peroxidase (HRP)-conjugated goat anti-mouse IgG antibody (0.5 microgram/ml).

Assay [6] deals with T5, recombinant, untagged TNF-gamma-beta protein (aa 72-251) (human, UniProt O95150 72-251).
T5 construct: they are put here; also called TL1β; non-tagged TNF-gamma-beta
T5 sequence: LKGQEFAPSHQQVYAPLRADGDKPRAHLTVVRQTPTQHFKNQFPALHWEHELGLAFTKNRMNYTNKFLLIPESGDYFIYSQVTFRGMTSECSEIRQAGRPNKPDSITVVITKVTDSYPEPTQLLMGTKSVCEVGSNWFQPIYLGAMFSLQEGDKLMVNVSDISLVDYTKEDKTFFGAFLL
The experiment in a line: BIAcore 3000, TNFR-Fc immobilised on CM5 chip, TNF-gamma-beta in flow. How it is done:
TNFR-Fc were covalently immobilized to the BIAcore sensor chip (CM5 chip) via amine groups using N-ethyl-N′-(dimethylaminopropyl) carbodiimide/N-hydroxysuccinimide chemistry. […] The amount of bound protein was determined during washing of the flow cell with HBS buffer (10 mM HEPES, pH 7.4, 150 mM NaCl, 3.4 mM EDTA, 0.005% Surfactant P20). The flow cell surface was regenerated by displacing bound protein by washing with 20 microliters of 10 mM glycine-HCl, pH 2.3. For kinetic analysis, the on and off rates were determined using the kinetic evaluation program in BIAevaluation 3 software using a 1:1 binding model and the global analysis method.

This passage reports binding result and tumor growth results from patent US20030129189A1, “Tumor necrosis factor-gamma” (priority 1994, published 2003).

Take B1: the binding result is “binds” with non-tagged form of TR6, “no binding” in assay [1] and “no binding” in assay [2].

B2: soluble DR3: extracellular domain of DR3 locally produced by transfected MCA 38 cells (protein, UniProt Q93038 25-199, looked up)
extracellular domain: QGGTRSPRCDCAGDFHKKIGLFCCRGCPAGHYLKAPCTEPCGNSTCLVCPQDTFLAWENHHNSECARCQACDEQASQVALENCSAVADTRCGCKPGWFVECQVSQCVSSSPFYCQPCLDCGALHRHTRLLCSRRDTDCGTCLPGFYEHGDGCVSCPTSTLGSCPERCAAVCGWRQ
modifications: extracellular domain
notes: extracellular domain of DR3 locally produced by transfected MCA 38 cells
On to B2, for which the tumor growth entry in assay [3] is reported as “promotes tumor growth”.

B3: TACI-Fc (extracellular domain of human TACI, aa 1-159, fused to the Fc domain of human IgG1) (Fc fusion, UniProt O14836 1-159, looked up)
chain: MSGLGRSRRGGRSRVDQEERFPQGLWTGVAMRSCPEEQYWDPLLGTCMSCKTICNHQSQRTCAAFCRSLSCRKEQGKFYDHLLRDCISCASICGQHPKQCAYFCENKLRSPVNLPPELRRQRSGEVENNSDNSGRYQGLEHRGSEASPALPGLKLSADQ
notes: range 1-159; also called TAC1; not shown: Fc domain of human IgG1, fused in-frame to the C-terminus of the receptor part
As for B3, the binding result in assay [4] and in assay [5] was “no binding” each time.

B4: BCMA-Fc (Fc fusion, human, UniProt Q02223 1-54, looked up)
chain: MLQMAGQCSQNEYFDSLLHACIPCQLRCSSNTPPLTCQRYCNASVTNSVKGTNA
notes: Control surface of the BIAcore analysis; not shown: Fc part of the fusion; not described for this receptor
On to B4, for which the binding result in assay [6] is “no binding (tested: 3-370 nM)”.
